Assay [1] addresses MERS-CoV N protein (MERS-CoV, UniProt K9N4V7 1-411). Briefly: ITC. Conditions: both partners purified.
Assay [2] addresses SARS-CoV N protein (SARS-CoV, UniProt P59595 1-422). Briefly: ITC. The following applies: both partners purified.

Chain of SARS-CoV N protein (P59595 whole entry): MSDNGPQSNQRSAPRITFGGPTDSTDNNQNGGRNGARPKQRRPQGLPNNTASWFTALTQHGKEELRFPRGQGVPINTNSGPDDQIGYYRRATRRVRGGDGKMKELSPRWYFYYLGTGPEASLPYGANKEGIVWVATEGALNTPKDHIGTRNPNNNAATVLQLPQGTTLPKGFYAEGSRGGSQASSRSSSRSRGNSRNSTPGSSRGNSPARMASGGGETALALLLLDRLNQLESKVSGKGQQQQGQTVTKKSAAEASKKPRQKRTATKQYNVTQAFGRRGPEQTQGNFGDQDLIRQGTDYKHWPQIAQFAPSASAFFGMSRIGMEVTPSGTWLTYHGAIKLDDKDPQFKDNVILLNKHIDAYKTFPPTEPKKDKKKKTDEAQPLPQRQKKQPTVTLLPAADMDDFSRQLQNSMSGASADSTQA

B1: MERS-CoV Ubl1 of Nsp3 (domain or fragment)
chain: APVKKVAFGGDQVHEVAAVRSVTVEYNIHAVLDTLLASSSLRTFVVDKSLSIEEFADVVKEQVSDLLVKLLRGMPIPDFDLDDFIDAPCYCFNAEGDASWSSTMIFSLHPVEC
The term Kd denotes the constant that tells how readily two partners part at equilibrium. A low value points to higher affinity. For orientation: stoichiometry N means the number of molecules, sites or subunits per partner or assembly. Turning to B1, in assay [1], the Kd is 2300 ± 600 nM, the dH was determined as 6.09 ± 0.311 kcal/mol and the “stoichiometry N” value was determined as 0.82 ± 0.02.

B2: SARS-CoV Ubl1 of Nsp3 (domain or fragment)
chain: APIKGVTFGEDTVWEVQGYKNVRITFELDERVDKVLNEKCSVYTVESGTEVTEFACVVAEAVVKTLQPVSDLLTNMGIDLDEWSVATFYLFDDAGEENFSSRMYCSFYPPD
B2: in assay [2], the Kd turned out to be 800 ± 200 nM, the dH was -13.4 ± 0.382 kcal/mol and the “stoichiometry N” value is 1 ± 0.02.

(Values after publication PMC9938351, “Structural insights into ribonucleoprotein dissociation by nucleocapsid protein interacting with non-structural protein 3 in SARS-CoV-2” (Communications Biology, 2020).)
